Target: the molecule itself
Assay: negative-staining EM

B1: wheat Sr35 (Triticum monococcum; TmSr35) [change]/[change], untagged (receptor)
chain: MEIAMGAIGSELPKEGELLIGEITLEKKVRKGIESLITELKLMQAVLSKVSKVPADQLDEGVKIWAGNVKELSYQMEDIVDAFMVRVGDGGESTNPKNRVKKILKKVKKLFKNGKDLHRISAALEEVVLQAKQLAELRQRYEQEMRDTSANTSVDPRMMALYTDVTELVGIEETRDKLINMLTEGDDWSKHPLKTISIVGFGGLGKTTLAKAAYDKIKVQFDCGAFVSVSRNPEMKKVLKDILYGLDKVKYENIHNAARDEKYLIDDIIEFLNDKRYLIVIDDIWNEKAWELIKCAFSKKSPGSRLITTTRNVSVSEACCSSEDDIYRMEPLSNDVSRTLFCKRIFSQEEGCPQELLKVSEEILKKCGGVPLAIITIASLLANKGHIKAKDEWYALLSSIGHGLTKNRSLEQMKKILLFSYYDLPSYLKPCLLYLSIFPEDREIRRARLIWRWISEGFVYSEKQDISLYELGDSYFNELVNRSMIQPIGIDDEGKVKACRVHDMVLDLICSLSSEENFVTILDDPRRKMPNSESKVRRLSIQNSKIDVDTTRMEHMRSVTVFSDNVVGKVLDISRFKVLRVLDLEGCHVSDVGYVGNLLHLRYLGLKGTHVKDLPMEIGKLQFLLTLDLRGTKIEVLPWSVVQLRRLMCLYVDYGMKLPSGIGNLTFLEVLDDLGLSDVDLDFVKELGRLTKLRVLRLDFHGFDQSMGKALEESISNMYKLDSLDVFVNRGLINCLSEHWVPPPRLCRLAFPSKRSWFKTLPSWINPSSLPLLSYLDITLFEVRSEDIQLLGTLPALVYLEIWNYSVFEEAHEVEAPVLSSGAALFPCATECRFIGIGAVPSMFPQGAAPRLKRLWFTFPAKWISSENIGLGMRHLPSLQRVVVDVISEGASREEADEAEAALRAAAEDHPNRPILDIW
Question: B1 was tested. Which “stoichiometry N” value did it give?
Answer: 5
